{
  "source": "paper PMC4528709",
  "about": "“Determinants in HIV-2 Env and tetherin required for functional interaction” (Retrovirology, 2015)",
  "binders": {"B1": {"name": "tetherin/BST-2 (natural protein)", "chain": "MASTSYDYCRVPMEDGDKRCKLLLGIGILVLLIIVILGVPLIIFTIKANSEACRDGLRAVMECRNVTHLLQQELTEAQKGFQDVEAQAATCNHTVMALMASLDAEKAQGQKKVEELEGEITTLNHKLQDASAEVERLRRENQVLSVRIADKKYYPSSQDSS", "notes": "tetherin/BST-2, human; untagged expression plasmid described in earlier work [20, 29, 38]; also called wild-type tetherin; source: 293T, co-transfected (200 ng plasmid), in lysate"}},
  "target": "T1, GFP-tagged ROD10 Env_(Y707A) (HIV-2 (strain ROD10), UniProt P04577 20-858, Y707A)",
  "T1 construct": "Env protein of HIV-2 strain ROD10 with a point mutation that disrupts an endocytosis motif in the cytoplasmic tail (pROD10_(Y707A) Env); also called Y707A mutant; source: 293T, co-transfected (2 ug plasmid), in lysate; not shown: eGFP, C-terminal, kept",
  "T1 sequence (looked up)": "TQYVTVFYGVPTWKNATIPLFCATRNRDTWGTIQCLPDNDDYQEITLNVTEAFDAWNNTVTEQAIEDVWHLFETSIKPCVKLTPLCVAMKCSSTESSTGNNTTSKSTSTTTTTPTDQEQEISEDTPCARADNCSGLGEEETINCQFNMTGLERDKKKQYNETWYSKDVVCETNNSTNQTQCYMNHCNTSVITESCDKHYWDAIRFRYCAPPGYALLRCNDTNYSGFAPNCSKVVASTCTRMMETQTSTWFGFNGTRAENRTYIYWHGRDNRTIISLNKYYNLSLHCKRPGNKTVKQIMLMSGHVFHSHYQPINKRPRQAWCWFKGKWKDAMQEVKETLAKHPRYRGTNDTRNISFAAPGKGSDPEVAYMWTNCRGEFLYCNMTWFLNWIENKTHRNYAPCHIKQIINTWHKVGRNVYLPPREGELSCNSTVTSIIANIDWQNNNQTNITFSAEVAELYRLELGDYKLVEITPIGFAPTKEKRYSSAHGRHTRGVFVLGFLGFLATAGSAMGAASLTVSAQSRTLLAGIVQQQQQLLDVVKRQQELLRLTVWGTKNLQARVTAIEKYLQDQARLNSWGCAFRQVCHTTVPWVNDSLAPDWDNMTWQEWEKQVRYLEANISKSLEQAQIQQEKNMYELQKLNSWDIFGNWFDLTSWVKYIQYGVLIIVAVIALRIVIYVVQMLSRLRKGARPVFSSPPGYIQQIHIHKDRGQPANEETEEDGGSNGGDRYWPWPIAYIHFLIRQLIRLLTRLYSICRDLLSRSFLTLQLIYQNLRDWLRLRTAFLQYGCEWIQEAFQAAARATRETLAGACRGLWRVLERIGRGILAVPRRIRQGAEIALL",
  "assay": "co-IP; quantification of tetherin immunoprecipitated by GFP-tagged Env, corrected for the cellular level of the Env protein, n = 3 experiments, data not shown",
  "conditions": "partners not purified",
  "data": [
    {"binder": "B1", "values": [
      {"measurement": "efficiency at immunoprecipitating tetherin relative to the WT ROD10 Env", "result": 67, "unit": "%"}
    ]}
  ]
}
